First the molecules themselves.
B1: OR4K15 (parent)
chain: GUUAACGGUCAUAGGCCAUGGAAACUAGGAGCACCAUUUCGCUGCCAGUGAAGAAAUGAACAAAGAAAAUCUGGGCCAGGCAGGCAUCAAAAGAAAUAGUCUUGCGCUCAACCAGAAAGUCUGUAAUCAUUUUAAGGGUA

In this series the parent is B1. Kind of series: self-cleavage, relative activity (ratio to wild type); higher = more cleavage; in vitro, sequencing; the parent is a self-cleaving ribozyme.
With GUUAACGGUCAUAGGCCAUGGAAACUAGGAGCACCAUUUCGCUGCCAGUGAAGAAUUGAACAAGGAAAAUCUGGGCCAGGCAGGCAUCAAAAGAAAUAGUCUUGCGCUCAACCAGAAAGUCUGUAAUCAUUUUAAGGGUA, the self-cleavage was 2.32.
Turning to GUUAACGGUCAUAGGCCAUGGAAACUAGGAGCACCAUUUCGCUGCCAGUGAAGAAUCGAACAAAGAAAAUCUGGGCCAGGCAGGCAUCAAAAGAAAUAGUCUUGCGCUCAACCAGAAAGUCUGUAAUCAUUUUAAGGGUA, the self-cleavage amounted to 1.47.
To GUUAACGGUCAUAGGCCAUGGAAACUAGGAGCACCAUUUCGCUGCCAGUGAAGAAUUGAACAAAGAAAAUCUGGGCCAGGCAGGCACCAAAAGAAAUAGUCUUGCGCUCAACCAGAAAGUCUGUAAUCAUUUUAAGGGUA belongs 1.05; to GUUAACGGUCAUAGGCCAUGGAAACUAGGAGCACCAUUUCGCUGCCAGUGAAGAAUUGAACUAAGAAAAUCUGGGCCAGGCAGGCAUCAAAAGAAAUAGUCUUGCGCUCAACCAGAAAGUCUGUAAUCAUUUUAAGGGUA, 1.15.
For GUUAACGGUCAUAGGCCAUGGAAACUAGGAGCACCAUUUCGCUGCCAGUGAAGAAAAGAACAAAGAAAAUCUGGGCCAGGCAGGCAUCAAAAGAAAUAGUCUUGCGCUCAACCAGAAAGUCUGUAAUCAUUUUAAGGGUA, the self-cleavage worked out at 0.69.
As to GUUAACGGUCAUAGGCCAUGGAAACUAGGAGCACCAUUUCGCUGCCAGUGAAGAAAAGAACAAAGAAAAUCUGGGCCAGGCAGGCAUCAAAAGAGAUAGUCUUGCGCUCAACCAGAAAGUCUGUAAUCAUUUUAAGGGUA, the self-cleavage turned out to be 2.11.
Regarding GUUAACGGUCAUAGGCCAUGGAAACUAGGAGCACCAUUUCGCUGCCAGUGAAGAAAAGAACAAAGAAAAUCUGGGCCAGGCAGGCAUCUAAAGAAAUAGUCUUGCGCUCAACCAGAAAGUCUGUAAUCAUUUUAAGGGUA, the self-cleavage was 0.95.
In the case of GUUAACGGUCAUAGGCCAUGGAAACUAGGAGCACCAUUUCGCUGCCAGUGAAGAAAAGAGCAAAGAAAAUCUGGGCCAGGCAGGCAUCAAAAGAAAUAGUCUUGCGCUCAACCAGAAAGUCUGUAAUCAUUUUAAGGGUA, the self-cleavage was 1.19.
To GUUAACGGUCAUAGGCCAUGGAAACUAGGAGCACCAUUUCGCUGCCAGUGAAGAAUUGAACAAAGAAAAUCUGGGCCAGGCAGGCAUCAAAAGAAAUAGUCUAGCGCUCAACCAGAAAGUCUGUAAUCAUUUUAAGGGUA belongs 0.25; to GUUAACGGUCAUAGGCCAUGGAAACUAGGAGCACCAUUUCGCUGCCAGUGAAGAAUUGAACAAAGAAAAUCUGGGCCAGGCAGGCAUCAAGAGAAAUAGUCUUGCGCUCAACCAGAAAGUCUGUAAUCAUUUUAAGGGUA, 2.02.
As to GUUAACGGUCAUAGGCCAUGGAAACUAGGAGCACCAUUUCGCUGCCAGUGAAGAAUUGAACAAAGAAAAUCUGGGCCAGGCAGGCAUCAAAAGAAGUAGUCUUGCGCUCAACCAGAAAGUCUGUAAUCAUUUUAAGGGUA, the self-cleavage was found to be 1.62.
Consider GUUAACGGUCAUAGGCCAUGGAAACUAGGAGCACCAUUUCGCUGCCAGUGAAGAAUUGAACAAAGUAAAUCUGGGCCAGGCAGGCAUCAAAAGAAAUAGUCUUGCGCUCAACCAGAAAGUCUGUAAUCAUUUUAAGGGUA, for which the self-cleavage turned out to be 0.42.
To GUUAACGGUCAUAGGCCAUGGAAACUAGGAGCACCAUUUCGCUGCCAGUGAAGAAAAGAACUAAGAAAAUCUGGGCCAGGCAGGCAUCAAAAGAAAUAGUCUUGCGCUCAACCAGAAAGUCUGUAAUCAUUUUAAGGGUA belongs 2.46.
For GUUAACGGUCAUAGGCCAUGGAAACUAGGAGCACCAUUUCGCUGCCAGUGAAGAAUUGAACAGAGAAAAUCUGGGCCAGGCAGGCAUCAAAAGAAAUAGUCUUGCGCUCAACCAGAAAGUCUGUAAUCAUUUUAAGGGUA, the self-cleavage was 2.61.
On to GUUAACGGUCAUAGGCCAUGGAAACUAGGAGCACCAUUUCGCUGCCAGUGAAGAAAAGAACAAGGAAAAUCUGGGCCAGGCAGGCAUCAAAAGAAAUAGUCUUGCGCUCAACCAGAAAGUCUGUAAUCAUUUUAAGGGUA, for which the self-cleavage was 1.32.
The same measure for GUUAACGGUCAUAGGCCAUGGAAACUAGGAGCACCAUUUCGCUGCCAGUGAAGAAUUGAACAAAGAAAAUCUGGGCCAGGCAGGCAUCAAAAGAAAUAGUCUUGCGCUCAACCAGAAAGUCUGUAAUCAUUUCAAGGGUA: 2.27; for GUUAACGGUCAUAGGCCAUGGAAACUAGGAGCACCAUUUCGCUGCCAGUGAAGAAUUGAACAAAGAAAAUCUGGGCCAGGCAGGCAUCAAAAGAAAUAGUCUUGCGCUCAACCAGAAAGUCUGUAAUCAUUCUAAGGGUA: 1.11; for GUUAACGGUCAUAGGCCAUGGAAACUAGGAGCACCAUUUCGCUGCCAGUGAAGAAUUGAACAAAGAAGAUCUGGGCCAGGCAGGCAUCAAAAGAAAUAGUCUUGCGCUCAACCAGAAAGUCUGUAAUCAUUUUAAGGGUA: 0.34.
For GUUAACGGUCAUAGGCCAUGGAAACUAGGAGCACCAUUUCGCUGCCAGUGAAGAAAAGAACAUAGAAAAUCUGGGCCAGGCAGGCAUCAAAAGAAAUAGUCUUGCGCUCAACCAGAAAGUCUGUAAUCAUUUUAAGGGUA, the self-cleavage was determined as 1.38.
For the variant GUUAACGGUCAUAGGCCAUGGAAACUAGGAGCACCAUUUCGCUGCCAGUGAAGAAUUGAACAAAGAAAAUCUGGGCCAGGCAGGCAUCAAAAGAAAUAGUCUUGCGCUCAACCAGAAAGUCAGUAAUCAUUUUAAGGGUA, the self-cleavage was 1.31.
Take GUUAACGGUCAUAGGCCAUGGAAACUAGGAGCACCAUUUCGCUGCCAGUGAAGAAUUGAACAAAGAAAUUCUGGGCCAGGCAGGCAUCAAAAGAAAUAGUCUUGCGCUCAACCAGAAAGUCUGUAAUCAUUUUAAGGGUA: the self-cleavage came to 0.67.

The values above are taken from the RNAGym collection of RNA variant scans (doi:10.7554/elife.90254).
